Experimental data reported in the Human Domainome abundance scans (Beltran et al. 2025).

B1: Transcriptional regulator ERG, residues 117 to 197; numbered along this chain, P11308 (parent)
chain: NMTTNERRVIVPADPTLWSTDHVRQWLEWAVKEYGLPDVNILLFQNIDGKELCKMTKDDFQRLTPSYNADILLSHLHYLRE

Variants of: B1
Assay: abundance fitness (aPCA) (normalised: wild type 0, dead -1); higher = more abundant; growth selection in yeast, the domain comes from the species named
Settings: Homo sapiens

Abundance fitness: each site, then its substitutions
E28: V -0.04; R -0.095; N 0.012; W -0.16; Q -0.062; D -0.146; T -0.031; K -0.041; Y -0.093; F -0.24; I -0.108; C -0.037; P -0.534; H 0.005; L -0.09; A -0.022; S -0.099
P15: Y -0.266; W -0.516
T20: A 0.021; I -0.11; P 0.06; E 0.011; Q -0.064; S -0.053; W -0.413; D -0.206; G -0.225; H -0.012; Y -0.276; L -0.198; F -0.205; M -0.219; R -0.05; N -0.072
S19: W -0.683; N -0.008; Y -0.798; L -0.565; H -0.18; R -0.145; K -0.065; G -0.133; E -0.129; A -0.223; Q -0.235; P -0.994; T -0.073; I -0.697; V -0.716; F -0.719; D -0.014
G35: A 0.03; E 0.009; Q 0.05; L -0.069; H 0.088; V -0.05; P -0.302; T 0.061; S 0.012; K 0.044; I -0.021; W -0.273; R -0.027; M -0.047; D 0.063; F -0.276; C -0.057
Y34: W -0.105; S -0.278; K -0.056; R -0.211; H -0.06; E -0.2; C -0.186; D -0.326; P -0.523; G -0.254; T -0.449; F -0.021; V -0.341; I -0.171; Q -0.28
W26: R -0.808; P -0.956; C -0.982; V -0.778; I -0.942; A -0.886; G -0.965; L -0.658; K -0.785; N -0.657; S -0.76; Y 0.011; F -0.068; H -0.96; T -1.34; E -0.727; Q -0.811
W29: H 0.082; L -0.168; Y 0.006; F -0.098; S 0.11; V -0.143; M -0.038; I -0.07; C 0.017; P -1.08; E 0.127; D 0.21; A 0.101; R -0.006; K 0.048; G 0.111; T 0.065
R24: I -0.162; Y -0.209; G -0.088; T 0.069; H -0.182; L -0.017; D -0.908; E -0.211; M -0.023; F -0.218; C -0.058; W -0.522; Q 0.077; P -0.988; K 0; N -0.105; S -0.02; V -0.015
L36: D -0.426; A -0.476; C 0.014
A30: E -0.051; V -0.095; T -0.051; W -0.324; D -0.884; L -0.103; Q -0.018; N -0.217; G -0.181; I -0.164; Y -0.655; S -0.103; K -0.105; C -0.117; F -0.403; H -0.108; P -0.956
T16: P -0.428; H 0.128; N -0.061; D -0.115; Q -0.171; I 0.048; W -0.115; L 0.052; M 0.02; F -0.008; C 0.028; Y 0.017; K -0.05; S -0.064; G -0.026; R -0.092
H22: W -0.55; F -0.701; S -0.357; C -0.229; T -0.324; A -0.286; N 0.074; P -1.06; V -0.198; E 0.018; Y -0.672; D -0.014; I -0.488; M -0.033; L -0.532; G -0.18
E33: W -0.169; M -0.105; N -0.059; F -0.034; H -0.108; Y -0.151; G -0.429; C -0.307; T -0.15; S -0.035; I -0.193; P -0.929; D 0.002; K 0.029
V31: C -0.111; T 0.001; K 0.06; G -0.164; H -0.14; P -0.649; W -0.439; Q -0.086; N -0.218; R -0.054; I 0.02; E -0.154; S -0.015; M -0.003; D -0.498
L27: Y -0.584; T -0.628; K -0.623; W -0.891; D -0.648; M -0.153; N -1.02; R -0.912; Q -0.658; C -0.47; S -1; F -0.493; E -0.965; I -0.085; P -0.593
K32: P -0.468; G -0.103; A -0.103; Q -0.109; R -0.052; F -0.166; Y -0.198; S -0.111; M 0.003; T -0.044; D -0.028; W -0.158; I 0.005; E 0.053; N 0.05; V -0.036; H -0.037
Q25: K -0.015; V 0.01; A 0.03; N -0.214; P -1; Y -0.07; I -0.001; C -0.015; S -0.05; L 0.064; G -0.095; F -0.072; D -0.061; M 0.022; E 0.022; R -0.003; H -0.046
L17: F -0.295; Q 0.033; E 0.093; S 0.122; D 0.091; C 0.042; V 0.017; W -0.041; P -1.08; G 0.074; T 0.154; I -0.002; N 0.053; R 0.039; M 0.046; Y -0.097; H 0.045
W18: G -0.895; E -0.885; H -1.04; R -0.785; M -0.635; K -0.625; S -0.864; C -1.04; L -0.979; F -0.886; P -1.17; Y -0.738; D -0.923; Q -0.578; N -0.994; A -0.676; V -0.937
D21: G -0.032; M -0.084; L -0.106; S -0.008; V -0.077; C -0.09; K -0.138; Y -0.186; T -0.065; I -0.035; W -0.141; H -0.09; E 0.042; F 0.024; N -0.113; R -0.051; A 0.004; Q -0.087
V23: K -0.991; Q -1.04; I -0.5; P -0.877; L -0.874; S -0.761; C -0.328; G -0.997; T -0.167; A -0.68; W -0.798; Y -0.905; N -0.475; H -0.846; D -0.781; R -1.04
